In the experiment the target is hERG 1b (human, UniProt Q12809 377-1159). Description: cell-based or functional assay.

B1: hERG 1a (other, human, UniProt Q12809 1-1159, looked up)
chain: MPVRRGHVAPQNTFLDTIIRKFEGQSRKFIIANARVENCAVIYCNDGFCELCGYSRAEVMQRPCTCDFLHGPRTQRRAAAQIAQALLGAEERKVEIAFYRKDGSCFLCLVDVVPVKNEDGAVIMFILNFEVVMEKDMVGSPAHDTNHRGPPTSWLAPGRAKTFRLKLPALLALTARESSVRSGGAGGAGAPGAVVVDVDLTPAAPSSESLALDEVTAMDNHVAGLGPAEERRALVGPGSPPRSAPGQLPSPRAHSLNPDASGSSCSLARTRSRESCASVRRASSADDIEAMRAGVLPPPPRHASTGAMHPLRSGLLNSTSDSDLVRYRTISKIPQITLNFVDLKGDPFLASPTSDREIIAPKIKERTHNVTEKVTQVLSLGADVLPEYKLQAPRIHRWTILHYSPFKAVWDWLILLLVIYTAVFTPYSAAFLLKETEEGPPATECGYACQPLAVVDLIVDIMFIVDILINFRTTYVNANEEVVSHPGRIAVHYFKGWFLIDMVAAIPFDLLIFGSGSEELIGLLKTARLLRLVRVARKLDRYSEYGAAVLFLLMCTFALIAHWLACIWYAIGNMEQPHMDSRIGWLHNLGDQIGKPYNSSGLGGPSIKDKYVTALYFTFSSLTSVGFGNVSPNTNSEKIFSICVMLIGSLMYASIFGNVSAIIQRLYSGTARYHTQMLRVREFIRFHQIPNPLRQRLEEYFQHAWSYTNGIDMNAVLKGFPECLQADICLHLNRSLLQHCKPFRGATKGCLRALAMKFKTTHAPPGDTLVHAGDLLTALYFISRGSIEILRGDVVVAILGKNDIFGEPLNLYARPGKSNGDVRALTYCDLHKIHRDDLLEVLDMYPEFSDHFWSSLEITFNLRDTNMIPGSPGSTELEGGFSRQRKRKLSFRRRTDKDTEQPGEVSALGPGRAGAGPSSRGRPGGPWGESPSSGPSSPESSEDEGPGRSSSPLRLVPFSSPRPPGEPPGGEPLMEDCEKSSDTCNPLSGAFSGVSNIFSFWGDSRGRQYQELPRCPAPTPSLLNIPLSSPGRRPRGDVESRLDALQRQLNRLETRLSADMATVLQLLQRQMTLVPPAYSAVTTPGPGPTSTSPLLPVSPLPTLTLDSLSQVSQFMACEELPPGAPELPQEGPTRRLSLPGQLGALTSQPLHRHGSDPGS
As to B1, the “hERG 1b maturation by Western blot analysis” value was around 3 fold.

(Values after patent US20100003690A1 (published 2010).)
